From paper PMC10786891, “Massively parallel profiling of RNA-targeting CRISPR-Cas13d”

T1: EsCas13d, nuclease-dead (Eubacterium siraeum, UniProt B0MS50, R295A;H300A;R849A;H854A)
T1 sequence: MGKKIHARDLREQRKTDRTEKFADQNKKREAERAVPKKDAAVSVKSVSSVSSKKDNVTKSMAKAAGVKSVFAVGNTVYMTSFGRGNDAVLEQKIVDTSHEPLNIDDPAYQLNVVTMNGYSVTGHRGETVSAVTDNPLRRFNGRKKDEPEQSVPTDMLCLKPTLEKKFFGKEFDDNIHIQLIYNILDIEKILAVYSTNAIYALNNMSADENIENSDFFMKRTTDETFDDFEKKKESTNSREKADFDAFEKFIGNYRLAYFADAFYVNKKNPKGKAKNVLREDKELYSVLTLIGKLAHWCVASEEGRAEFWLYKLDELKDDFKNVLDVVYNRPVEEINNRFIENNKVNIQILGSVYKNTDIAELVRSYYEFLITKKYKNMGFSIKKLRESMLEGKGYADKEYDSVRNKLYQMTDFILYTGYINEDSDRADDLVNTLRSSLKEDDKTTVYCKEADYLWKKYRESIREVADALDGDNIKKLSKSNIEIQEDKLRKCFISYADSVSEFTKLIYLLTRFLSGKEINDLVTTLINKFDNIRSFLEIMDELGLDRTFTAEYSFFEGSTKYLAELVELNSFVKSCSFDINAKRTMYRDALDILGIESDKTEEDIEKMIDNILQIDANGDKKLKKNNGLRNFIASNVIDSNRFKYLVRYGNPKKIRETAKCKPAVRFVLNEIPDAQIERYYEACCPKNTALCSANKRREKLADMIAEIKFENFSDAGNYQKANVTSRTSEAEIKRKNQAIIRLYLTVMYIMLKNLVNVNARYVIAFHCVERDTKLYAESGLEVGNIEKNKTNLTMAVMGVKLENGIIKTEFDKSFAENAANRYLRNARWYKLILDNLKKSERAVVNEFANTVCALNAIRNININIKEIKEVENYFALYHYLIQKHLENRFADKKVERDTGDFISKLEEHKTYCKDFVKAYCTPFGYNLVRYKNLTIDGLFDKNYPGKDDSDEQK


Target: T1, EsCas13d, nuclease-dead
Assay: crRNA (strand 1, pre-loaded); Mg2+; 40 mM Tris-HCl pH 7.5, 150 mM NaCl, 6 mM MgCl2, 1 mM DTT, 0.1% Tween-20, 0.2 mg/ml BSA; 25 C; 10 min per concentration, then washed
Details: tags: His6-TwinStrep-SUMO cleaved; N-terminal SNAP kept (SNAP-Surface 488); label: 3' end held by stalled T7 RNA polymerase

Binder | Kd [µM]
target 1 insA 3' of 12,insG 3' of 10 (mixed) RNA 1: CACCCGUGCAAAAAUGCAGGGGUCUAAAACUGAGCGGAUAACCUCUCUAUGG RNA 2: GGGAAUGGAUCCACAUCUACGAAUUCGUACCAUAGAGAGGAUUGAUCCGCUCACCGAGAUCGGAAGAGCACACGU | 0.0292 ± 0.0032
target 1 insA 3' of 15,insU 3' of 2 (mixed) RNA 1: CACCCGUGCAAAAAUGCAGGGGUCUAAAACUGAGCGGAUAACCUCUCUAUGG RNA 2: GGGAAUGGAUCCACAUCUACGAAUUCGUACCAUAGAGAAGGUUAUCCGCUCUACCGAGAUCGGAAGAGCACACGU | 0.0065 ± 0.0004
target 1 insA 3' of 17,insA 3' of 5 (mixed) RNA 1: CACCCGUGCAAAAAUGCAGGGGUCUAAAACUGAGCGGAUAACCUCUCUAUGG RNA 2: GGGAAUGGAUCCACAUCUACGAAUUCGUACCAUAGAAGAGGUUAUCCGACUCACCGAGAUCGGAAGAGCACACGU | 0.0106 ± 0.0011
target 1 A9G,C21U (mixed) RNA 1: CACCCGUGCAAAAAUGCAGGGGUCUAAAACUGAGCGGAUAACCUCUCUAUGG RNA 2: GGGAAUGGAUCCACAUCUACGAAUUCGUACUAUAGAGAGGUUGUCCGCUCACCGAGAUCGGAAGAGCACACGU | 0.009 ± 0.0005
target 1 insU 3' of 17,insA 3' of 7 (mixed) RNA 1: CACCCGUGCAAAAAUGCAGGGGUCUAAAACUGAGCGGAUAACCUCUCUAUGG RNA 2: GGGAAUGGAUCCACAUCUACGAAUUCGUACCAUAGUAGAGGUUAUCACGCUCACCGAGAUCGGAAGAGCACACGU | 0.0142 ± 0.0012
target 1 insG 3' of 16,insA 3' of 8 (mixed) RNA 1: CACCCGUGCAAAAAUGCAGGGGUCUAAAACUGAGCGGAUAACCUCUCUAUGG RNA 2: GGGAAUGGAUCCACAUCUACGAAUUCGUACCAUAGAGGAGGUUAUACCGCUCACCGAGAUCGGAAGAGCACACGU | 0.0221 ± 0.0018
target 1 del3,del8 (mixed) RNA 1: CACCCGUGCAAAAAUGCAGGGGUCUAAAACUGAGCGGAUAACCUCUCUAUGG RNA 2: GGGAAUGGAUCCACAUCUACGAAUUCGUACCAUAGAGAGGUUACCGCCACCGAGAUCGGAAGAGCACACGU | 0.00705 ± 0.00033
target 1 A14G,C21A (mixed) RNA 1: CACCCGUGCAAAAAUGCAGGGGUCUAAAACUGAGCGGAUAACCUCUCUAUGG RNA 2: GGGAAUGGAUCCACAUCUACGAAUUCGUACAAUAGAGGGGUUAUCCGCUCACCGAGAUCGGAAGAGCACACGU | 0.046 ± 0.012
target 1 insC 3' of 12,insA 3' of 5 (mixed) RNA 1: CACCCGUGCAAAAAUGCAGGGGUCUAAAACUGAGCGGAUAACCUCUCUAUGG RNA 2: GGGAAUGGAUCCACAUCUACGAAUUCGUACCAUAGAGAGGCUUAUCCGACUCACCGAGAUCGGAAGAGCACACGU | 0.0104 ± 0.0011
target 1 insC 3' of 17,insU 3' of 12 (mixed) RNA 1: CACCCGUGCAAAAAUGCAGGGGUCUAAAACUGAGCGGAUAACCUCUCUAUGG RNA 2: GGGAAUGGAUCCACAUCUACGAAUUCGUACCAUAGCAGAGGUUUAUCCGCUCACCGAGAUCGGAAGAGCACACGU | 0.042 ± 0.006
target 1 insU 3' of 7,insA 3' of 6 (mixed) RNA 1: CACCCGUGCAAAAAUGCAGGGGUCUAAAACUGAGCGGAUAACCUCUCUAUGG RNA 2: GGGAAUGGAUCCACAUCUACGAAUUCGUACCAUAGAGAGGUUAUCUCAGCUCACCGAGAUCGGAAGAGCACACGU | 0.0237 ± 0.0008
target 1 insG 3' of 7,insU 3' of 5 (mixed) RNA 1: CACCCGUGCAAAAAUGCAGGGGUCUAAAACUGAGCGGAUAACCUCUCUAUGG RNA 2: GGGAAUGGAUCCACAUCUACGAAUUCGUACCAUAGAGAGGUUAUCGCGUCUCACCGAGAUCGGAAGAGCACACGU | 0.0138 ± 0.001
target 1 G15A,G17U (mixed) RNA 1: CACCCGUGCAAAAAUGCAGGGGUCUAAAACUGAGCGGAUAACCUCUCUAUGG RNA 2: GGGAAUGGAUCCACAUCUACGAAUUCGUACCAUAUAAAGGUUAUCCGCUCACCGAGAUCGGAAGAGCACACGU | 0.073 ± 0.013
target 1 insA 3' of 22,insG 3' of 7 (mixed) RNA 1: CACCCGUGCAAAAAUGCAGGGGUCUAAAACUGAGCGGAUAACCUCUCUAUGG RNA 2: GGGAAUGGAUCCACAUCUACGAAUUCGUACACAUAGAGAGGUUAUCGCGCUCACCGAGAUCGGAAGAGCACACGU | 0.00862 ± 0.00035
target 1 insG 3' of 10,insG 3' of 6 (mixed) RNA 1: CACCCGUGCAAAAAUGCAGGGGUCUAAAACUGAGCGGAUAACCUCUCUAUGG RNA 2: GGGAAUGGAUCCACAUCUACGAAUUCGUACCAUAGAGAGGUUGAUCCGGCUCACCGAGAUCGGAAGAGCACACGU | 0.0222 ± 0.0015
target 1 insC 3' of 10,insC 3' of 3 (mixed) RNA 1: CACCCGUGCAAAAAUGCAGGGGUCUAAAACUGAGCGGAUAACCUCUCUAUGG RNA 2: GGGAAUGGAUCCACAUCUACGAAUUCGUACCAUAGAGAGGUUCAUCCGCUCCACCGAGAUCGGAAGAGCACACGU | 0.0202 ± 0.0031
target 1 C6U (mixed) RNA 1: CACCCGUGCAAAAAUGCAGGGGUCUAAAACUGAGCGGAUAACCUCUCUAUGG RNA 2: GGGAAUGGAUCCACAUCUACGAAUUCGUACCAUAGAGAGGUUAUCUGCUCACCGAGAUCGGAAGAGCACACGU | 0.0085 ± 0.0004
target 1 G15C,G17C (mixed) RNA 1: CACCCGUGCAAAAAUGCAGGGGUCUAAAACUGAGCGGAUAACCUCUCUAUGG RNA 2: GGGAAUGGAUCCACAUCUACGAAUUCGUACCAUACACAGGUUAUCCGCUCACCGAGAUCGGAAGAGCACACGU | 0.05 ± 0.01
target 1 C2U,A16G (mixed) RNA 1: CACCCGUGCAAAAAUGCAGGGGUCUAAAACUGAGCGGAUAACCUCUCUAUGG RNA 2: GGGAAUGGAUCCACAUCUACGAAUUCGUACCAUAGGGAGGUUAUCCGCUUACCGAGAUCGGAAGAGCACACGU | 0.0393 ± 0.0027
target 1 complement block 7-9 (mixed) RNA 1: CACCCGUGCAAAAAUGCAGGGGUCUAAAACUGAGCGGAUAACCUCUCUAUGG RNA 2: GGGAAUGGAUCCACAUCUACGAAUUCGUACCAUAGAGAGGUUUAGCGCUCACCGAGAUCGGAAGAGCACACGU | 0.00654 ± 0.00023
target 1 insU 3' of 12,insA 3' of 2 (mixed) RNA 1: CACCCGUGCAAAAAUGCAGGGGUCUAAAACUGAGCGGAUAACCUCUCUAUGG RNA 2: GGGAAUGGAUCCACAUCUACGAAUUCGUACCAUAGAGAGGUUUAUCCGCUCAACCGAGAUCGGAAGAGCACACGU | 0.007 ± 0.0004
target 1 insG 3' of 6,insA 3' of 3 (mixed) RNA 1: CACCCGUGCAAAAAUGCAGGGGUCUAAAACUGAGCGGAUAACCUCUCUAUGG RNA 2: GGGAAUGGAUCCACAUCUACGAAUUCGUACCAUAGAGAGGUUAUCCGGCUACACCGAGAUCGGAAGAGCACACGU | 0.0069 ± 0.0004
target 1 A1G,C22A (mixed) RNA 1: CACCCGUGCAAAAAUGCAGGGGUCUAAAACUGAGCGGAUAACCUCUCUAUGG RNA 2: GGGAAUGGAUCCACAUCUACGAAUUCGUAACAUAGAGAGGUUAUCCGCUCGCCGAGAUCGGAAGAGCACACGU | 0.012 ± 0.0007
target 1 U10C,G13U (mixed) RNA 1: CACCCGUGCAAAAAUGCAGGGGUCUAAAACUGAGCGGAUAACCUCUCUAUGG RNA 2: GGGAAUGGAUCCACAUCUACGAAUUCGUACCAUAGAGAUGUCAUCCGCUCACCGAGAUCGGAAGAGCACACGU | 0.071 ± 0.018
target 1 U8A,A18U (mixed) RNA 1: CACCCGUGCAAAAAUGCAGGGGUCUAAAACUGAGCGGAUAACCUCUCUAUGG RNA 2: GGGAAUGGAUCCACAUCUACGAAUUCGUACCAUUGAGAGGUUAACCGCUCACCGAGAUCGGAAGAGCACACGU | 0.078 ± 0.023
target 1 G5A,G12A (mixed) RNA 1: CACCCGUGCAAAAAUGCAGGGGUCUAAAACUGAGCGGAUAACCUCUCUAUGG RNA 2: GGGAAUGGAUCCACAUCUACGAAUUCGUACCAUAGAGAGAUUAUCCACUCACCGAGAUCGGAAGAGCACACGU | 0.0102 ± 0.0015
target 1 insA 3' of 19,insG 3' of 16 (mixed) RNA 1: CACCCGUGCAAAAAUGCAGGGGUCUAAAACUGAGCGGAUAACCUCUCUAUGG RNA 2: GGGAAUGGAUCCACAUCUACGAAUUCGUACCAUAAGAGGAGGUUAUCCGCUCACCGAGAUCGGAAGAGCACACGU | 0.046 ± 0.006
target 1 C6A,A18U (mixed) RNA 1: CACCCGUGCAAAAAUGCAGGGGUCUAAAACUGAGCGGAUAACCUCUCUAUGG RNA 2: GGGAAUGGAUCCACAUCUACGAAUUCGUACCAUUGAGAGGUUAUCAGCUCACCGAGAUCGGAAGAGCACACGU | 0.0267 ± 0.0021
